Reference: patent US20220064286A1 (Genentech, published 2022)
Read-outs that look alike come from different tables or passages of the source.

B1: 7.4A3 (antibody, V domains shown)
VH: QVQLVQSGSDLKKPGASVRVSCKASGYTFTSYPMNWVRQAPGHGLEWMGWINTNTGNPTYVQGFTGRFVFSLDTSVNTAYLQISSLKAEDTAVYFCARTGGHTYDSYAFDVWGQGTMVTVSS
VL: DIQLTQSPTFLSASVGDRVTITCRASQVISSSLAWYQQNPGKAPKLLIYAASTLQSGVPSRFSGSGSGTEFTLTISSLQPEDFVTYYCQHLHGYPCNFGQGTKVEIK
notes: OMT rat-derived human antibody; also called 7.4A3.Q1.C96
B2: 7.4A3.C96Y.Q1E (antibody, V domains shown)
VH: EVQLVQSGSDLKKPGASVRVSCKASGYTFTSYPMNWVRQAPGHGLEWMGWINTNTGNPTYVQGFTGRFVFSLDTSVNTAYLQISSLKAEDTAVYFCARTGGHTYDSYAFDVWGQGTMVTVSS
VL: DIQLTQSPTFLSASVGDRVTITCRASQVISSSLAWYQQNPGKAPKLLIYAASTLQSGVPSRFSGSGSGTEFTLTISSLQPEDFVTYYCQHLHGYPYNFGQGTKVEIK
notes: No entry is tied to this variant by name; built from 7.4A3 with the two named changes (Q1E in the heavy chain, C96Y in HVR-L3); also called 7.4A3.Q1E.C96Y
B3: rat6B2 (antibody, V domains shown)
VH: QVSLKESGPGILQPSHTLSLTCSFSGFSLSTYGMGVSWIRQPSEKGLEWLASIWWNGNTYYNPSLKSRLTVSKDASNDQAFLNVTSVDTTDTATYYCAHTGGAVITWFAYWGQGTLVTVSS
VL: NIVMTQSPKSMSISVGDRVTMNCKASQSVGKNIAWYQQKPGQSPKLLIYYASNRYTGVPDRFTGGGSGTDFTLTINTVQAEDAAFFYCQHIYNSPYPFGTGTKLEIK
notes: SD rat-derived; rat V domains as FR/HVR pieces; also called 1.6B2; Chimeric 1.6B2
B4: h7E7.L5aH9a (antibody, V domains shown)
VH: EVQLVQSGAEVKKPGASVKVSCKASGYTFTEYSIYWVRQAPGQRLEIMGRIDPKNGRTYYVDKFKNRVTITRDTSASTAYMELSSLRSEDTAVYYCARIYGFYFDFWGQGTLVTVSS
VL: DIQLTQSPSFLSASVGDRVTITCKGSQNVNKYLVWYQQKPGKAPKLLIYNTDNLQSGVPSRFSGSGSGTEYTLTISSLQPEDFATYYCYQYNNGFTFGQGTKVEIK
notes: Final humanized 7E7; keeps rat VH I47 and VL Y71; FR/HVR pieces
B5: 4.1A4.C96S.Q1E (antibody, V domains shown)
VH: EVQLVQSGSELKKPGASVKVSCKASGYTLTNYPMNWVRQAPGRGLEWMGWINTNTGSPAYAQDFTERFVFSLDTSVTTAYLQISSLKAEDTAVYYCARTAITSVYHFDYWGQGTLVTVSS
VL: DIQLTQSPSFLSASVGDRVTITCRASQGISSYLAWYQQKPGKAPRVLIYGATTLQSGVPSRFSGSESGTEFTLTISSLQPEDLATYYCQKLNSHPSSFGQGTKVEIK
notes: FR/HVR pieces in order; also called 4.1A4.Q1E.C96S
B6: 4.1A4.C96Y.Q1E (antibody, V domains shown)
VH: EVQLVQSGSELKKPGASVKVSCKASGYTLTNYPMNWVRQAPGRGLEWMGWINTNTGSPAYAQDFTERFVFSLDTSVTTAYLQISSLKAEDTAVYYCARTAITSVYHFDYWGQGTLVTVSS
VL: DIQLTQSPSFLSASVGDRVTITCRASQGISSYLAWYQQKPGKAPRVLIYGATTLQSGVPSRFSGSESGTEFTLTISSLQPEDLATYYCQKLNSHPYSFGQGTKVEIK
notes: FR/HVR pieces in order; also called 4.1A4.Q1E.C96Y

How the values were obtained:
[1] = target: T1, human TIGIT protein (human, UniProt Q495A1 22-141, limits assumed); test: SPR, captured mAb
T1 construct: Recombinant protein (Genentech) used in ELISA screening and as SPR analyte; also called TIGIT antigen
T1 sequence: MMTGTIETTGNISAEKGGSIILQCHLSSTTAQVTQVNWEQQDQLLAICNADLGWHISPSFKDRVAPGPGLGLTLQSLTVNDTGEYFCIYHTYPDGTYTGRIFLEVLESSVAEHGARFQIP
From the text: (§1) To prevent unwanted pyroglutamate formation for clones 4.1A4, 4.1 D3, and 7.4A3 (also referred to as 1A4, 1 D3, and 4A3, respectively) and to resolve the issue of unpaired cysteine residues for clones 4.1A4 and 7.4A3, the following optimized anti-TIGIT antibody variants were generated: 4.1A4.C96S.Q1E, 4.1A4.C96Y.Q1E, 4.1 D3.Q1E, 7.4A3.C96S.Q1E, and 7.4A3.C96Y.Q1E (also referred to as 1A4.C96S.Q1E, 1A4.C96Y.Q1E, 1 D3.Q1E, 4A3.C96S.Q1E, and 4A3.C96Y.Q1E, respectively). As described below in Table 2, the affinities of these five optimized variants for human and cynomolgus monkey (cyno) TIGIT were then determined by Surface Plasmon Resonance (SRP) (BIACORE™ analysis) and compared to that of their respective parental clones.
(§2) Briefly, a series S CM5 biosensor chip was activated with N-ethyl-N′-(3-dimethylaminopropyl)-carbodiimide hydrochloride (EDC) and N-hydroxysuccinimide (NHS) reagents according to the supplier's (GE Healthcare Biosciences, Piscataway, N.J.) instructions, and a human antibody capture kit was applied to couple goat anti-human Fc IgGs in order to achieve approximately 10,000 response units (RU) on each flow cell, followed by blocking un-reacted groups with 1M ethanolamine.
(§3) (flow rate: 30 μl/min) with no regeneration between injections. The sensorgrams were recorded and evaluated by BIAcore™ T200 Evaluation Software (version 2.0) after subtraction of reference cell signal. Association rates (kₒₙ) and dissociation rates (koff) were calculated using a simple one-to-one Langmuir binding model. The equilibrium dissociation constant (KD) was calculated as the ratio koff/kₒₙ.

[2] = target: T2, cynomolgus monkey (cyno) TIGIT protein (cynomolgus monkey, UniProt A0A7N9I9V4 89-209); test: SPR, captured mAb
From the text: as §1, §2, §3

[3] = target: T1, human TIGIT protein; test: SPR, bivalent affinity
[4] = target: T2, cynomolgus monkey (cyno) TIGIT protein; test: SPR, bivalent affinity
[5] = target: T1, human TIGIT protein; test: SPR, monovalent affinity
[6] = target: T2, cynomolgus monkey (cyno) TIGIT protein; test: SPR, monovalent affinity
[7] = target: T3, cynomolgus TIGIT on CHO cells (cynomolgus monkey, UniProt A0A7N9I9V4 89-312); test: FACS on CHO cells expressing cyno TIGIT, FITC anti-hIgG detection
T3 construct: whole, on cells; also called CHO-cyTIGIT; cyTIGIT
Protocol: Additional in vitro binding studies of the OMT- and SD-derived anti-TIGIT antibody clones were conducted. The OMT- and SD-derived anti-TIGIT clones were tested for binding to human and cyno TIGIT expressed on the surface of CHO cells by FACS analysis. CHO cells were transfected with full-length human TIGIT (CHO-hTIGIT) or cynomologous TIGIT (CHO-cyTIGIT). The TIGIT-expressing CHO cells were incubated with each anti-TIGIT antibody at the indicated concentrations and then detected via a FITC-labeled anti-hIgG antibody (see FIG. 1A) using standard methods. The results, shown in Table 6 and FIGS. 1B-1E, corroborate the results from the BIACORE™ analysis, described above.

[8] = target: T3, cynomolgus TIGIT on CHO cells; test: FACS blocking assay: labelled PVR-Fc (blocked ligand; text: cyPVR, scheme of FIG. 4A prints hPVR.Fc) on CHO cells expressing cyno TIGIT
Protocol: (§4) These studies were further validated in CHO-TIGIT PVR blocking experiments in which TIGIT-expressing CHO cells were incubated with labeled PVR-Fc fusion protein in the presence of anti-TIGIT antibody or an human IgG1 control (FIG. 4A).

[9] = target: T1, human TIGIT protein; test: SPR, captured mAb; remark: listed apart in the source
Protocol: as §2, §3
(§5) The first humanized versions, h6B2, L1H1, h10A5.L1H1, h7E7, L1H1, and h15C8.L1H1, which contain both rat CDRs and framework residues at Vernier positions, and the fully humanized versions, h6B2.L2H5, h10A5.L4H4, h7E7.L5H9, and h15C8.L5H9, which contain only rat CDRs were subject to BIAcore affinity measurement by comparison with original rat antibodies, rat6B2, rat10A5, rat7E7 and rat 15C8. For binding affinity determinations of TIGIT antibodies against human TIGIT, cynomolgus monkey TIGIT and human alanine-scanned TIGIT mutants by single-cycle kinetics, Surface Plasmon Resonance (SRP) measurement with a BIACORE™-T200 instrument was used, as described above.

[10] = target: T2, cynomolgus monkey (cyno) TIGIT protein; test: SPR, captured mAb; remark: listed apart in the source
Protocol: as §2, §3, §5

[11] = target: T4, human TIGIT on activated human primary T cells (human, UniProt Q495A1 22-244); test: FACS, activated human T cells
T4 construct: also called Human T cell
T4 sequence: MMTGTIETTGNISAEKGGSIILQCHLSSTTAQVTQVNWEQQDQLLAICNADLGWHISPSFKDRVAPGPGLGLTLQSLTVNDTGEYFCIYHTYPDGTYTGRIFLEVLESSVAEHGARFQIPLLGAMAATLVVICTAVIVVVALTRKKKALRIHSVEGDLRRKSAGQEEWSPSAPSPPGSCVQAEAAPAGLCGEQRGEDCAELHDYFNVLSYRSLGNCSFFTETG
Protocol: The OMT- and SD-derived anti-TIGIT clones were also tested for binding to human primary T cells by FACS analysis. Human PBMC were activated for with plate-bound anti-CD3 (5 μg/ml) and soluble anti-CD28 (2 μg/ml) for 2 days as described in Yu et al. Nature Immunology. 10: 48-57, 2009, which is incorporated herein by reference in its entirety. Cells were then washed and incubated with incubated with each anti-TIGIT antibody at the indicated concentrations and then detected via a FITC-labeled anti-hIgG antibody. Cells were also stained with anti-CD4, anti-CD8, and anti-CD25 (BD bioscience). Human CD4+(CD25+CD4+) and human CD8+(CD25+CD8+) T cells were assessed for binding by the anti-TIGIT clones by FACS. All samples were acquired on LSR-II or LSR-Fortessa instruments (BD Biosciences) and analyzed using FlowJo software (Treestar).

[12] = target: T5, full-length human TIGIT on CHO cells (human, UniProt Q495A1 22-244); test: FACS, CHO cells expressing TIGIT
T5 construct: also called CHO-hTIGIT; hu TIGIT
T5 sequence: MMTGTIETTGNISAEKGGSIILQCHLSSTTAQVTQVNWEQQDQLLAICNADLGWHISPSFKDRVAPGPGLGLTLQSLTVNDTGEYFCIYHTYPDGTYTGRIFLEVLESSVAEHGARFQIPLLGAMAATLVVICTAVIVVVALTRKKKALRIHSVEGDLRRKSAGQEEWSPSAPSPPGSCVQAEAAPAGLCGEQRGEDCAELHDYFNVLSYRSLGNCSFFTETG

[13] = target: T5, full-length human TIGIT on CHO cells; test: FACS, PVR-Fc on CHO-TIGIT cells; competitor PVR-Fc
Protocol: as §4

[14] = target: T6, hTIGIT mutant H76A (human, UniProt Q495A1); test: SPR (BIACORE), N=2
T6 sequence (TIGIT, looked up): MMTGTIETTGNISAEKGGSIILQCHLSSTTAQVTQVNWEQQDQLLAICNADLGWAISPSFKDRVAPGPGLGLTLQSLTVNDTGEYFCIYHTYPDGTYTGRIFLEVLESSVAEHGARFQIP

[15] = target: T6, hTIGIT mutant H76A; test: SPR (BIACORE) KD normalized to WT, N=2
[16] = target: T3, cynomolgus TIGIT on CHO cells; test: FACS blocking assay: labelled PVR-Fc (blocked ligand) on CHO cells expressing cyno TIGIT
Protocol: as §4

T2 sequence (A0A7N9I9V4 entry or part of it): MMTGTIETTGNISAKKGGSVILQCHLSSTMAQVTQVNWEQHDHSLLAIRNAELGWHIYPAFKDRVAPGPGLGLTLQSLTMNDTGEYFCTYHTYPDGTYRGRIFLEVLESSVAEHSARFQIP
T3 sequence (A0A7N9I9V4 entry or part of it): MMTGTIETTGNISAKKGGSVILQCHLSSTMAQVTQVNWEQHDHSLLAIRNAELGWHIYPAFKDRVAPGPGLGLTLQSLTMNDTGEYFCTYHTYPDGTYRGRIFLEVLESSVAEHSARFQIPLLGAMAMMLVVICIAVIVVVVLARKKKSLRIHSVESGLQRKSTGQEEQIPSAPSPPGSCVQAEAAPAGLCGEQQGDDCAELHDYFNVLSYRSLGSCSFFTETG

Row | Binder | Kd [1] | koff [1] | kon [1] | Kd [2] | koff [2] | kon [2] | Kd [3] | Kd [4] | Kd [5] | Kd [6] | EC50 (read off the curve) [7] | IC50 (read off the curve) [8] | Kd [10] | koff [10] | kon [10] | also measured
1 | B1 | 3.44 nM | 0.00104 s⁻¹ | 302000 M⁻¹ s⁻¹ | 2.09 nM | 0.000699 s⁻¹ | 334000 M⁻¹ s⁻¹ | 0.098 nM | ≤ 0.05 nM | 3.6 nM | 1.6 nM | ~1 nM | ~0.3 nM |  |  |  | 
2 | B2 | 98 nM | 0.0365 s⁻¹ | 372000 M⁻¹ s⁻¹ | 35.6 nM | 0.014 s⁻¹ | 395000 M⁻¹ s⁻¹ |  |  | 98.1 nM | 35.5 nM |  |  |  |  |  | 
3 | B3 |  |  |  |  |  |  | ≤ 0.027 nM | 0.091 nM | 0.035 nM | 0.29 nM |  |  | 0.29 nM | 0.000202 s⁻¹ | 688000 M⁻¹ s⁻¹ | Kd [9]: 0.04 nM; koff [9]: 3.5e-05 s⁻¹; kon [9]: 997000 M⁻¹ s⁻¹; EC50 [11]: 0.09 nM; EC50 [12]: 0.52 nM; IC50 [13]: 0.08 nM
4 | B4 |  |  |  |  |  |  |  |  |  |  |  |  | 0.31 nM | 0.000182 s⁻¹ | 591000 M⁻¹ s⁻¹ | Kd [14]: 1 nM; Binding affinity drop vs. WT [15]: 2.5 fold
5 | B5 |  |  |  | 12.6 nM | 0.0169 s⁻¹ | 1.34e+06 M⁻¹ s⁻¹ |  |  |  | 12.6 nM | ~0.5 nM | ~0.09 nM |  |  |  | 
6 | B6 |  |  |  |  |  |  |  |  |  | > 100 nM |  |  |  |  |  | binding result [16]: no binding (tested: about 20 nM)
